For assay [1], the target named is mAb R24 (anti-GD3 monoclonal antibody, IgG3). The assay can be described thus: competitive ELISA: BEC2 pre-incubated with mAb R24 (30 min), remaining R24 binding to plate coated with 0.1 µg GD3 ganglioside.
For assay [2] the target is unchanged. Description: competitive ELISA: peptide pre-incubated with mAb R24, remaining R24 binding to GD3-coated plate.
Assay [3] has the same target. Description: competitive ELISA: peptide pre-incubated with mAb R24 (30 min), remaining R24 binding to plate coated with 0.1 µg GD3 ganglioside.

In assay [1], “mAb BEC2 (anti-idiotypic monoclonal antibody, IgG2b)” displayed an IC50 of 10 µg/mL and a concentration giving full inhibition of 60 µg/mL.
The molecule SVAVPPPADDPSWRY [GD3-like peptide PGD3-6] displayed a concentration giving full inhibition in assay [2] of over 600 pmol/mL. In assay [3], this molecule returned an IC50 of 250 nM.
The like results for GLAPPDYAERFFLIS [GD3-like peptide PGD3-3] were, in that order, over 600 pmol/mL and 300 nM.
The like results for ACTPYAMLPGCK [GD3-like peptide PGD3-5] were, in that order, over 600 pmol/mL and 100 nM.
For the molecule RHAYRSMAEWGFLYS [GD3-like peptide PGD3-4], the concentration giving full inhibition in assay [2] was over 600 pmol/mL. This molecule also gave an IC50 in assay [3] of 150 nM.

These data come from patent US20110131669A1.
